This passage reports percent inhibition of IL-6 binding to IL-6 receptor results from patent JP2012055312A.

The target of this assay is ビオチン−IL−6 (UniProt P05231). The assay can be described thus: Luminex-based assay of IL-6 binding to IL-6 receptor (solid-phase sIL-6R/gp80).
UniProt P05231, sequence (P05231 30-212 limits assumed): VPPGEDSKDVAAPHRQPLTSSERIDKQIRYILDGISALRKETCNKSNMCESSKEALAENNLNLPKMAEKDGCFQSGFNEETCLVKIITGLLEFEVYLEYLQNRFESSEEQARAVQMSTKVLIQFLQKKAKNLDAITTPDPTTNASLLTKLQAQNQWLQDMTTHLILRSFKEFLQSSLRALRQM

B1: キメラCLB8 (antibody, V domains shown)
VH: EVQLVESGGKLLKPGGSLKLSCAASGFTFSSFAMSWFRQSPEKRLEWVAEISSGGSYTYYPDTVTGRFTISRDNAKNTLYLEMSSLRSEDTAMYYCARGLWGYYALDYWGQGTSVTVSS
VL: QIVLIQSPAIMSASPGEKVTMTCSASSSVSYMYWYQQKPGSSPRLLIYDTSNLASGVPVRFSGSGSGTSYSLTISRMEAEDAATYYCQQWSGYPYTFGGGTKLEIK
Regarding B1, the percent inhibition of IL-6 binding to IL-6 receptor came out at 100%.
